Data taken from patent publication US20100087371.

Chain of hGHQ40N, P01241 (P01241 27-217 Q66N): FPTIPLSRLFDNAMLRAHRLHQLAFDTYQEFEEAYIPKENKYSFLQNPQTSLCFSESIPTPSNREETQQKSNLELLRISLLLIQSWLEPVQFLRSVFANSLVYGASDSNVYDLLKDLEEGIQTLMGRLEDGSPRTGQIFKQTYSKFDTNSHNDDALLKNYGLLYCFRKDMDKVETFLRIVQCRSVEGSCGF
Chain of hGHQ141N, P01241 (P01241 27-217 Q167N): as the sequence (P01241 27-217 Q66N) above, with N40Q, Q141N counted along it

B1: AlaPro-mTGase from S. mobaraensis (protein)
chain: APDSDDRVTPPAEPLDRMPDPYRPSYGRAETVVNNYIRKWQQVYSHRDGRKQQMTEEQREWLSYGCVGVTWVNSGQYPTNRLAFASFDEDRFKNELKNGRPRSGETRAEFEGRVAKESFDEEKGFQRAREVASVMNRALENAHDESAYLDNLKKELANGNDALRNEDARSPFYSALRNTPSFKERNGGNHDPSRMKAVIYSKHFWSGQDRSSSADKRKYGDPDAFRPAPGTGLVDMSRDRNIPRSPTSPGEGFVNFDYGWFGAQTEADADKTVWTHGNHYHAPNGSLGAMHVYESKFRNWSEGYSDFDRGAYVITFIPKSWNTAPDKVKQGWP
Activity towards hGHQ40N (RFU/sec/µg), dansyl-cadaverine incorporation (hGHQ40N, P01241): 5.05 RFU/sec/µg | Activity towards hGHQ141N (RFU/sec/µg), dansyl-cadaverine incorporation (hGHQ141N, P01241): 1.56 RFU/sec/µg

B2: GlyPro-mTGase from S. mobaraensis (protein)
chain: GPDSDDRVTPPAEPLDRMPDPYRPSYGRAETVVNNYIRKWQQVYSHRDGRKQQMTEEQREWLSYGCVGVTWVNSGQYPTNRLAFASFDEDRFKNELKNGRPRSGETRAEFEGRVAKESFDEEKGFQRAREVASVMNRALENAHDESAYLDNLKKELANGNDALRNEDARSPFYSALRNTPSFKERNGGNHDPSRMKAVIYSKHFWSGQDRSSSADKRKYGDPDAFRPAPGTGLVDMSRDRNIPRSPTSPGEGFVNFDYGWFGAQTEADADKTVWTHGNHYHAPNGSLGAMHVYESKFRNWSEGYSDFDRGAYVITFIPKSWNTAPDKVKQGWP
Activity towards hGHQ40N (RFU/sec/µg), dansyl-cadaverine incorporation (hGHQ40N, P01241): 4.28 RFU/sec/µg | Activity towards hGHQ141N (RFU/sec/µg), dansyl-cadaverine incorporation (hGHQ141N, P01241): 1.13 RFU/sec/µg

B3: AlaPro-mTGase from S. ladakanum (protein)
chain: APDSDERVTPPAEPLDRMPDPYRPSYGRAETIVNNYIRKWQQVYSHRDGRKQQMTEEQREWLSYGCVGVTWVNSGQYPTNRLAFAFFDEDKYKNELKNGRPRSGETRAEFEGRVAKDSFDEAKGFQRARDVASVMNKALENAHDEGAYLDNLKKELANGNDALRNEDARSPFYSALRNTPSFKDRNGGNHDPSKMKAVIYSKHFWSGQDRSGSSDKRKYGDPEAFRPDRGTGLVDMSRDRNIPRSPTSPGESFVNFDYGWFGAQTEADADKTVWTHGNHYHAPNGSLGAMHVYESKFRNWSDGYSDFDRGAYVVTFVPKSWNTAPDKVKQGWP
Activity towards hGHQ40N (RFU/sec/µg), dansyl-cadaverine incorporation (hGHQ40N, P01241): 6.91 RFU/sec/µg | Activity towards hGHQ141N (RFU/sec/µg), dansyl-cadaverine incorporation (hGHQ141N, P01241): 1.02 RFU/sec/µg

B4: GlyPro-mTGase from S. ladakanum (protein)
chain: GPDSDERVTPPAEPLDRMPDPYRPSYGRAETIVNNYIRKWQQVYSHRDGRKQQMTEEQREWLSYGCVGVTWVNSGQYPTNRLAFAFFDEDKYKNELKNGRPRSGETRAEFEGRVAKDSFDEAKGFQRARDVASVMNKALENAHDEGAYLDNLKKELANGNDALRNEDARSPFYSALRNTPSFKDRNGGNHDPSKMKAVIYSKHFWSGQDRSGSSDKRKYGDPEAFRPDRGTGLVDMSRDRNIPRSPTSPGESFVNFDYGWFGAQTEADADKTVWTHGNHYHAPNGSLGAMHVYESKFRNWSDGYSDFDRGAYVVTFVPKSWNTAPDKVKQGWP
Activity towards hGHQ40N (RFU/sec/µg), dansyl-cadaverine incorporation (hGHQ40N, P01241): 4.25 RFU/sec/µg | Activity towards hGHQ141N (RFU/sec/µg), dansyl-cadaverine incorporation (hGHQ141N, P01241): 0.48 RFU/sec/µg

B5: Met-mTGase from S. ladakanum (protein)
chain: MDSDERVTPPAEPLDRMPDPYRPSYGRAETIVNNYIRKWQQVYSHRDGRKQQMTEEQREWLSYGCVGVTWVNSGQYPTNRLAFAFFDEDKYKNELKNGRPRSGETRAEFEGRVAKDSFDEAKGFQRARDVASVMNKALENAHDEGAYLDNLKKELANGNDALRNEDARSPFYSALRNTPSFKDRNGGNHDPSKMKAVIYSKHFWSGQDRSGSSDKRKYGDPEAFRPDRGTGLVDMSRDRNIPRSPTSPGESFVNFDYGWFGAQTEADADKTVWTHGNHYHAPNGSLGAMHVYESKFRNWSDGYSDFDRGAYVVTFVPKSWNTAPDKVKQGWP
Activity towards hGHQ40N (RFU/sec/µg), dansyl-cadaverine incorporation (hGHQ40N, P01241): 4.74 RFU/sec/µg | Activity towards hGHQ141N (RFU/sec/µg), dansyl-cadaverine incorporation (hGHQ141N, P01241): 0.8 RFU/sec/µg

B6: Met-mTGase from S. mobaraensis (protein)
chain: MDSDDRVTPPAEPLDRMPDPYRPSYGRAETVVNNYIRKWQQVYSHRDGRKQQMTEEQREWLSYGCVGVTWVNSGQYPTNRLAFASFDEDRFKNELKNGRPRSGETRAEFEGRVAKESFDEEKGFQRAREVASVMNRALENAHDESAYLDNLKKELANGNDALRNEDARSPFYSALRNTPSFKERNGGNHDPSRMKAVIYSKHFWSGQDRSSSADKRKYGDPDAFRPAPGTGLVDMSRDRNIPRSPTSPGEGFVNFDYGWFGAQTEADADKTVWTHGNHYHAPNGSLGAMHVYESKFRNWSEGYSDFDRGAYVITFIPKSWNTAPDKVKQGWP
Activity towards hGHQ40N (RFU/sec/µg), dansyl-cadaverine incorporation (hGHQ40N, P01241): 5.44 RFU/sec/µg | Activity towards hGHQ141N (RFU/sec/µg), dansyl-cadaverine incorporation (hGHQ141N, P01241): 1.24 RFU/sec/µg

B7: mTGase from S. mobaraensis (protein)
chain: DSDDRVTPPAEPLDRMPDPYRPSYGRAETVVNNYIRKWQQVYSHRDGRKQQMTEEQREWLSYGCVGVTWVNSGQYPTNRLAFASFDEDRFKNELKNGRPRSGETRAEFEGRVAKESFDEEKGFQRAREVASVMNRALENAHDESAYLDNLKKELANGNDALRNEDARSPFYSALRNTPSFKERNGGNHDPSRMKAVIYSKHFWSGQDRSSSADKRKYGDPDAFRPAPGTGLVDMSRDRNIPRSPTSPGEGFVNFDYGWFGAQTEADADKTVWTHGNHYHAPNGSLGAMHVYESKFRNWSEGYSDFDRGAYVITFIPKSWNTAPDKVKQGWP
Activity towards hGHQ40N (RFU/sec/µg), dansyl-cadaverine incorporation (hGHQ40N, P01241): 3.35 RFU/sec/µg | Activity towards hGHQ141N (RFU/sec/µg), dansyl-cadaverine incorporation (hGHQ141N, P01241): 0.98 RFU/sec/µg

B8: Mature mTGase from S. ladakanum (protein)
chain: DSDERVTPPAEPLDRMPDPYRPSYGRAETIVNNYIRKWQQVYSHRDGRKQQMTEEQREWLSYGCVGVTWVNSGQYPTNRLAFAFFDEDKYKNELKNGRPRSGETRAEFEGRVAKDSFDEAKGFQRARDVASVMNKALENAHDEGAYLDNLKKELANGNDALRNEDARSPFYSALRNTPSFKDRNGGNHDPSKMKAVIYSKHFWSGQDRSGSSDKRKYGDPEAFRPDRGTGLVDMSRDRNIPRSPTSPGESFVNFDYGWFGAQTEADADKTVWTHGNHYHAPNGSLGAMHVYESKFRNWSDGYSDFDRGAYVVTFVPKSWNTAPDKVKQGWP
Activity towards hGHQ40N (RFU/sec/µg), dansyl-cadaverine incorporation (hGHQ40N, P01241): 3.55 RFU/sec/µg | Activity towards hGHQ141N (RFU/sec/µg), dansyl-cadaverine incorporation (hGHQ141N, P01241): 0.63 RFU/sec/µg
